Reference: patent publication US20190367619A1 (ARGENX, published 2019)
Residue numbers refer to the chain shown, from its start. Each block holds one binder with its values, some of them ahead of it.

Experiments:
[1] = biological target: T1, human galectin-10-His (recombinant human galectin-10 with TEV-cleavable N-terminal His-tag) (human); assay: BLI tandem on galectin-10-His; isotype control as saturating antibody (10 ug/mL)
T1 construct: SEC-MALLS: dimer in solution; also called Gal10-His; humanGal10-His
T1 chain: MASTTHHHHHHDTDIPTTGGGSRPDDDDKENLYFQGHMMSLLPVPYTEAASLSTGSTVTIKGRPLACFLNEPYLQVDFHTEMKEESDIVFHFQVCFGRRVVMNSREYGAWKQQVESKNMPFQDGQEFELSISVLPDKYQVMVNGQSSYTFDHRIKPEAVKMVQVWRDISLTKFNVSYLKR
Procedure: (§1) In order to identify the galectin-10 binding sites of the different clones, an epitope mapping method (TANDEM), using the BLI technology, was established. Briefly, the galectin-10-His was captured on anti-HIS 1K sensor tips, before incubation with an excess of one antibody (called the “saturating” antibody) then directly transferred to a solution containing the “competitor” antibody at a suboptimal concentration. If the “saturating” and the competitor antibody bind to the same binding sites, no binding of “competitor” will be detected (expressed in nm shift).

[2] = biological target: T1, human galectin-10-His (recombinant …); assay: BLI tandem on galectin-10-His; buffer in place of the saturating antibody
Procedure: as §1

[3] = biological target: T1, human galectin-10-His (recombinant …); assay: BLI tandem on galectin-10-His; competitor: saturating 6E10 mIgG1 (10 ug/mL)
Procedure: as §1

[4] = biological target: T2, TEV-cleaved wild-type recombinant human galectin-10 (soluble, in Fab complexes, or as recombinant galectin-10 … (human, UniProt Q05315 1-142)); assay: cell-based or functional assay
T2 sequence: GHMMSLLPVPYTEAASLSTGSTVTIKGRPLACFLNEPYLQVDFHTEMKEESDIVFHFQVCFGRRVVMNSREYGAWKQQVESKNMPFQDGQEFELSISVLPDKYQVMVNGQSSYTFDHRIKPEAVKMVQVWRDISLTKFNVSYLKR

[5] = biological target: T1, human galectin-10-His (recombinant …); assay: BLI tandem on galectin-10-His; competitor: saturating 6B06 mIgG1 (10 ug/mL)
Procedure: as §1

[6] = biological target: T1, human galectin-10-His (recombinant …); assay: BLI tandem on galectin-10-His; competitor: saturating 6A08 mIgG1 (10 ug/mL)
Procedure: as §1

[7] = biological target: T1, human galectin-10-His (recombinant …); assay: BLI tandem on galectin-10-His; competitor: saturating 4E08 mIgG1 (10 ug/mL)
Procedure: as §1

[8] = biological target: T1, human galectin-10-His (recombinant …); assay: SPR Biacore T3000, mouse IgG1 captured by anti-mouse Fc, galectin-10-His as analyte
Procedure: The binding capacity of the mouse IgG1 antibodies to galectin-10 was analyzed on Biacore T3000. For this purpose, a capture approach was set up. A CM5 Chip was coated with polyclonal anti-mouse Fc at 8000 RU, then a fixed concentration of the mouse IgG1 antibody panel (1.5 μg/mL), diluted in HBS-EP pH7.4, was captured to reach a binding signal around 150 RU. Finally, a serial dilution of galectin-10-His (serial dilution, 1 over 2 from 5 μg/mL) diluted in HBS-EP pH7.4 was injected. Raw data were analyzed via BIA evaluation software with a blank subtraction (4-3). The kd/KD and Rmax of each mAb to galectin-10-His was determined using the Fit Kinetics simultaneous ka/kd/Binding with mass transfer/Local Rmax on BIA evaluation software.

[9] = biological target: T1, human galectin-10-His (recombinant …); assay: ELISA, mouse IgG1 on coated galectin-10-His (0.2 ug/mL)
Procedure: In a similar setup to that used during the characterization of the scFv-human Fc molecules, the relative binding affinities of the 10 mouse IgG1 antibodies were analyzed by ELISA. A Maxisorp plate was coated overnight with 0.2 μg/mL of galectin-10-His. Then a serial dilution of each clone (from 100 nM, dilution 1/4, 12 points of dilutions) was incubated on coated galectin-10. After several washing steps, detection of the bound mouse IgG1 was carried out with an anti-mouse Fc-HRP antibody. Absorbance was measured at 450 nm (reference at 620 nm) with Tecan instrument. A mouse IgG1 isotype control was used as negative control. A polyclonal anti-galectin-10 antibody was used as positive control for the coating of galectin-10. The raw data (OD values) were plotted on GraphPad Prism 7.01. The EC50 values for each antibody, calculated with a non-linear regression (log(agonist) vs. response Variable slope (four parameters)), are reported in Table 7 below.

[10] = biological target: T1, human galectin-10-His (recombinant …); assay: BLI tandem on galectin-10-His; competitor: saturating 2C07 mIgG1 (10 ug/mL)
Procedure: as §1

[11] = biological target: T1, human galectin-10-His (recombinant …); assay: BLI tandem on galectin-10-His; competitor: saturating 1D11 mIgG1 (10 ug/mL)
Procedure: as §1

[12] = biological target: T1, human galectin-10-His (recombinant …); assay: BLI tandem on galectin-10-His; competitor: saturating 2F09 mIgG1 (10 ug/mL)
Procedure: as §1

[13] = biological target: T1, human galectin-10-His (recombinant …); assay: BLI tandem on galectin-10-His; competitor: saturating 6A05 mIgG1 (10 ug/mL)
Procedure: as §1

[14] = biological target: T1, human galectin-10-His (recombinant …); assay: BLI tandem on galectin-10-His; competitor: saturating 6F06 mIgG1 (10 ug/mL)
Procedure: as §1

[15] = biological target: T1, human galectin-10-His (recombinant …); assay: BLI tandem on galectin-10-His; competitor: saturating 1C09 mIgG1 (10 ug/mL)
Procedure: as §1

binding signal (nm) [1]: 0.73 nm | binding signal (nm) [2]: 0.8 nm | binding signal (nm) [3]: -0.04 nm | 100% Solubilization of CLC (Conc uM) [4]: > 2.2 µM | binding signal (nm) [5]: 0.04 nm | binding signal (nm) [6]: -0.01 nm | binding signal (nm) [7]: -0.05 nm | Kd [8]: 0.5 nM | koff [8]: 0.00036 s⁻¹ | Bmax [9]: 2.95 OD | EC50 [9]: 0.08 nM | binding signal (nm) [10]: 0.03 nm | binding signal (nm) [11]: 0.04 nm | binding signal (nm) [12]: -0.01 nm | binding signal (nm) [13]: 0.04 nm | binding signal (nm) [14]: 0.04 nm | binding signal (nm) [15]: 0 nm
B1: 2C07 mouse IgG1 (antibody, V domains shown)
VH: ELQLVESGGGLVQPGGSLRLSCAASGFTFSSYAMSWVRQAPGKGLEWVSNINSGGGSTGYADSVKGRFTISRDNAKNTLYLQMNSLKPEDMAVYYCAKYLRTYYPNAAFGMDYWGKGTLVTVSS
VL: QAVLTQPSAVSVSLGQTARITCQGGNFGRYYASWYQQKPGQAPVLVIYRDSERPSGIPERFSGSSSGDTATLTISGAQAEDEADYYCQSGRSSDNAVFGGGTHLTGL
notes: VH on mouse IgG1 heavy chain constant domains (CH1-CH2-CH3), VL on mouse lambda light chain constant domain; also called 2C07 mIgG1

binding signal (nm) [1]: 0.94 nm | binding signal (nm) [2]: 0.98 nm | binding signal (nm) [3]: -0.02 nm | 100% Solubilization of CLC (Conc uM) [4]: > 10 µM | binding signal (nm) [5]: 0.03 nm | binding signal (nm) [6]: 0.02 nm | binding signal (nm) [7]: 0.03 nm | Kd [8]: 0.3 nM | koff [8]: 0.00306 s⁻¹ | Bmax [9]: 3.28 OD | EC50 [9]: 0.08 nM | binding signal (nm) [10]: 0.04 nm | binding signal (nm) [11]: 0.07 nm | binding signal (nm) [12]: 0 nm | binding signal (nm) [13]: 0.06 nm | binding signal (nm) [14]: 0.05 nm | binding signal (nm) [15]: 0.01 nm
B2: 6B06 mouse IgG1 (antibody, V domains shown)
VH: QVQRQESGPGLVKPSQTLSLTCTVSGGSITTNYYSWSWIRQPPGKGLEWIGYIAYSGSTSYSPSLKSRTSISRDTSNNQFSLQLSSVTPEDTAVYYCARSRSSPTTFGMDYWGKGTLVTVSS
VL: B1 VL with Q1S, A2S, V3A, A32V, Q36T, R49Q, S55T, R91T, A96I, G106V
notes: also called 6B06 mIgG1

binding signal (nm) [1]: 1.34 nm | binding signal (nm) [2]: 1.38 nm | binding signal (nm) [3]: 0 nm | 100% Solubilization of CLC (Conc uM) [4]: 10.5 µM | binding signal (nm) [5]: 0.04 nm | binding signal (nm) [6]: 0.04 nm | binding signal (nm) [7]: 0.1 nm | Kd [8]: 0.5 nM | koff [8]: 0.00082 s⁻¹ | Bmax [9]: 2.4 OD | EC50 [9]: 0.17 nM | binding signal (nm) [10]: 0.06 nm | binding signal (nm) [11]: 0.1 nm | binding signal (nm) [12]: 0 nm | binding signal (nm) [13]: 0.09 nm | binding signal (nm) [14]: 0.07 nm | binding signal (nm) [15]: 0.03 nm
B3: 6E10 mouse IgG1 (antibody, V domains shown)
VH: QLQLVESGGGLVQPGGSLRLSCAASGFTFSSYWMYWVRQAPGKGLEWVSAINTGGGSTYYADSVKGRFTISRDNAKNTLYLQMNSLKPEDTALYYCARAGSGVAGTGYDYWGQGTQVTVSS
VL: B1 VL with A2P, T5N, R29Y, A32V, E52G, R91S, G106V
notes: also called 6E010; 6E10 mIgG1

binding signal (nm) [1]: 1.04 nm | binding signal (nm) [2]: 1.08 nm | binding signal (nm) [3]: -0.05 nm | 100% Solubilization of CLC (Conc uM) [4]: > 10 µM | binding signal (nm) [5]: 0.05 nm | binding signal (nm) [6]: -0.04 nm | binding signal (nm) [7]: -0.05 nm | Kd [8]: 1 nM | koff [8]: 0.00067 s⁻¹ | Bmax [9]: 3.2 OD | EC50 [9]: 0.15 nM | binding signal (nm) [10]: 0.05 nm | binding signal (nm) [11]: 0.05 nm | binding signal (nm) [12]: 0 nm | binding signal (nm) [13]: 0.05 nm | binding signal (nm) [14]: 0.05 nm | binding signal (nm) [15]: 0 nm
B4: 6A08 mouse IgG1 (antibody, V domains shown)
VH: QVQLVESGGGLVQPGGSLRLSCAASGFTFSSYAMSWVRQAPGKGPEWVSAINRGGGSTYYADSVKGRFTISRDNAKNTLYLQMNSLKPEDAAVYYCATPGDRLWYYRYDYWGQGAQVTVSS
VL: QTVVTQEPSLSVSPGGTVTLTCGLSSGSVTSSNYPGWYQQTPGQAPRLLIYNTNSRYSGVPNRFSGSISGNKAALIISGAQPEDEADYHCALNRVRGTYRVFGGGTHLTVL
notes: also called 6A08 mIgG1
